The values below come from paper PMC12695660, “Genome-scale CRISPR screens identify PTGES3 as a direct modulator of androgen receptor function in advanced prostate cancer”.

Where a chain is given by its changes, count along the chain named.

Data set [1] deals with ARΔNTD (AR DBD-hinge-LBD) (mouse, UniProt P19091 528-899). The data set is described as follows: fluorescence polarization; 1 uM DHT; no PTGES3; apparent Kd only plotted; FP/EMSA: 150 mM NaCl, 20 mM HEPES pH 7.5, 1 mM TCEP, 1 uM DHT, 10% glycerol, 0.05% IGEPAL CA-630, 100 nM DNA; proteins preincubated 30 min on ice at 8 uM; assay temperature not stated. Mass photometry: same buffer at 5 uM, flash diluted into PBS to 10 nM. To be noted: protein: recombinant; chain copies: 2; label: 5'-fluorescein (6-FAM) on sense strand; blunt. A general note: In fluorescence polarisation assays a small probe gives low polarisation when free and higher when bound to something large.
Sequence of ARΔNTD (AR DBD-hinge-LBD) (P19091 528-899, stated change not applied): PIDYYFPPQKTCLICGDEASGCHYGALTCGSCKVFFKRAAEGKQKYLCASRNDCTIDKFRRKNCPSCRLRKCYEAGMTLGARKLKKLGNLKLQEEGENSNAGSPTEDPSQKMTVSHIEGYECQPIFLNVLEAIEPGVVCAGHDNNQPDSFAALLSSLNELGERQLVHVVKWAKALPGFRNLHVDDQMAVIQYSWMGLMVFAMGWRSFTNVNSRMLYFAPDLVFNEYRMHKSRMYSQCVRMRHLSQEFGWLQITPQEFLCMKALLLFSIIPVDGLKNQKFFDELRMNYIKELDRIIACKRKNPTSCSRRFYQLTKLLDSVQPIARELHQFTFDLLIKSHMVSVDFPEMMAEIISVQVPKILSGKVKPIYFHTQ

Data set [2] addresses ARΔNTD (AR DBD-hinge-LBD);PTGES3 (tagless) (mouse;human, UniProt P19091;Q15185 528-899;1-160, |). The data set is described as follows: fluorescence polarization; 1 uM DHT; equimolar PTGES3; binding stronger than ARΔNTD alone (P=0.0337); FP/EMSA: 150 mM NaCl, 20 mM HEPES pH 7.5, 1 mM TCEP, 1 uM DHT, 10% glycerol, 0.05% IGEPAL CA-630, 100 nM DNA; proteins preincubated 30 min on ice at 8 uM; assay temperature not stated. Mass photometry: same buffer at 5 uM, flash diluted into PBS to 10 nM. To be noted: protein: recombinant;recombinant; tags: ;Smt3 tag cleaved by Ulp1; label: 5'-fluorescein (6-FAM) on sense strand; blunt.

Data set [3] deals with T1, ARΔNTD (AR DBD-hinge-LBD);Smt3-PTGES3 (mouse;human, UniProt P19091;Q15185 528-899;1-160, |). The experiment in a line: fluorescence polarization; 1 uM DHT; equimolar Smt3-PTGES3; binding stronger than ARΔNTD alone (P=0.0254); FP/EMSA: 150 mM NaCl, 20 mM HEPES pH 7.5, 1 mM TCEP, 1 uM DHT, 10% glycerol, 0.05% IGEPAL CA-630, 100 nM DNA; proteins preincubated 30 min on ice at 8 uM; assay temperature not stated. Mass photometry: same buffer at 5 uM, flash diluted into PBS to 10 nM. The following applies: protein: recombinant;recombinant; tags: ;N-terminal Smt3; label: 5'-fluorescein (6-FAM) on sense strand; blunt.
T1 sequence (P19091 528-899, stated change not applied, chain 1 of 2): as the sequence (P19091 528-899, stated change not applied) above
T1 sequence (Q15185 whole entry, stated change not applied, chain 2 of 2, the tested form may be a part): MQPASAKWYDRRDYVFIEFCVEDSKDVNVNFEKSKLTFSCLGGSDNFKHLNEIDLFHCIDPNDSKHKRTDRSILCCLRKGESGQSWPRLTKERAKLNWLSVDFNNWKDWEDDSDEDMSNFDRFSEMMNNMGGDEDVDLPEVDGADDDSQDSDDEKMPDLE

Data set [4] addresses T1, ARΔNTD (AR DBD-hinge-LBD);Smt3-PTGES3. The data set is described as follows: mass photometry; Smt3-PTGES3 restricts formation of heterogeneous complexes; FP/EMSA: 150 mM NaCl, 20 mM HEPES pH 7.5, 1 mM TCEP, 1 uM DHT, 10% glycerol, 0.05% IGEPAL CA-630, 100 nM DNA; proteins preincubated 30 min on ice at 8 uM; assay temperature not stated. Mass photometry: same buffer at 5 uM, flash diluted into PBS to 10 nM. To be noted: protein: recombinant;recombinant; tags: ;N-terminal Smt3; blunt.

The next data set deals with ARDBD;PTGES3 (tagless) (mouse;human, UniProt P19091;Q15185 528-631;1-160, |). The experiment in a line: EMSA; equimolar PTGES3 augments ARDBD binding; PTGES3 variant (tagless or Smt3) not stated; FP/EMSA: 150 mM NaCl, 20 mM HEPES pH 7.5, 1 mM TCEP, 1 uM DHT, 10% glycerol, 0.05% IGEPAL CA-630, 100 nM DNA; proteins preincubated 30 min on ice at 8 uM; assay temperature not stated. Mass photometry: same buffer at 5 uM, flash diluted into PBS to 10 nM. The following applies: protein: recombinant;recombinant; tags: ;Smt3 tag cleaved by Ulp1; label: 5'-fluorescein (6-FAM) on sense strand; blunt. In general terms: In EMSA bound probe runs differently from free probe, usually more slowly.
Sequence of ARDBD;PTGES3 (tagless) (P19091 528-631, chain 1 of 2): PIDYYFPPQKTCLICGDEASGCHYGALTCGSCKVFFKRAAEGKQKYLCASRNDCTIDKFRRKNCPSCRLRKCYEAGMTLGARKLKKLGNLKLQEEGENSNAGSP
Sequence of ARDBD;PTGES3 (tagless) (Q15185 whole entry, chain 2 of 2): as the sequence (Q15185 whole entry, stated change not applied, chain 2 of 2, the tested form may be a part) above

Sequence of ARΔNTD (AR DBD-hinge-LBD);PTGES3 (tagless) (P19091 528-899, stated change not applied, chain 1 of 2): as the sequence (P19091 528-899, stated change not applied) above
Sequence of ARΔNTD (AR DBD-hinge-LBD);PTGES3 (tagless) (Q15185 whole entry, stated change not applied, chain 2 of 2, the tested form may be a part): as the sequence (Q15185 whole entry, stated change not applied, chain 2 of 2, the tested form may be a part) above

B1: ARE 36 bp (dsDNA)
DNA 1: TAAAATGTAAACAACGTAGAACATCAGGAACTCCGG
DNA 2: CCGGAGTTCCTGATGTTCTACGTTGTTTACATTTTA
Take B1: the binding result in data set [1], in data set [2] and in data set [3] was “binds” in each case.

B2: ARE 36 bp, unlabeled (mass photometry) (dsDNA)
DNA 1: B1 DNA 1 with G27T, A29T, A30T
DNA 2: B1 DNA 2 with T7A, T8A, C10A
With B2, the binding result in data set [4] was “binds”.

B3: Canonical ARE 36 bp (dsDNA)
DNA 1: B1 DNA 1 with G27T, A29T, A30T
DNA 2: B1 DNA 2 with T7A, T8A, C10A
Consider B3, for which the binding result with ARDBD;PTGES3 (tagless) is on record as “binds”.
